# Assay results: the RNAGym collection of RNA variant scans (doi:10.1073/pnas.2313332121)
# Fewer inactive variants are shown than the library holds.
# B1: TPR 5TU (parent)
# chain: GGAUCUUCUCGAUCUAACAAAAAAGACAAAUCUGCCACAAAGCUUGAGAGCAUCUUCGGAUGCAGAGGCGGCAGCCUUCGGUGGCGCGAUAGCGCCAACGUUCUCAACUAUGACACGCAAAACGCGUGCUCCGUUGAAUGGAGUUUAUCAUG
# Variants of: B1
# Test: polymerase ribozyme fitness, log enrichment relative to wild type (log ratio); higher = more active; in vitro selection for triplet polymerase activity
# Procedure, shortened: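 Genotype fitness is the logarithm of its enrichment divided by wild-type enrichment, using inverse-variance-weighted averages of replicates. That logarithm is base 2. Enrichment was measured by Illumina sequencing of input and output libraries from one triplicate in vitro selection round, with frozen incubation at −7 °C, on PCR-built, transcribed mutant libraries of each subunit of a heterodimeric triplet polymerase ribozyme, retaining genotypes with ≥10 input reads and ≥1 read per output.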
row,Variant,polymerase ribozyme fitness (log ratio)
1,U56A C76U,0.105
2,U55G A98U U144G,0.317
3,U56A C57G A113C,-1.82
4,U55A G59A U148G,-2.52
5,U56A A113G,-1.32
6,U55A U77A,≤ -4.2
7,U55A C93U C95U C96U,-3
8,U55G G62A G92U C96A,-3.44
9,U56A C95U A98U,-1.6
10,U56A C95U A98C,-0.392
11,U55C C85U G136C,-3.51
12,U55A U134G,-1.99
13,U55A U134C,-0.296
14,U56A C93U C116U,-1.11
15,U56A A115C,-0.798
16,U56A C69U C129U,-0.94
17,U56A C95U C96G A110G A119G G152U,-4.13
18,U56A G59A A97U C149U,-1.48
19,U56A G65A G94C A150U,-1.57
20,U55C G74C,-3.64
21,U55G A60G C69U A91G U144A,-2.3
22,U55G C87U,-1.42
23,U55G A137C,-3.36
24,U55A G124A,-0.272

row,Variant,polymerase ribozyme fitness (log ratio)
1,U55A G124U,-2
2,U55G G59C G94C U102A U127A U135C,≤ -4.2
3,U55A G92U U146C,-0.69
4,U55A C103U,-0.726
5,U55A C103G,-2.22
6,U55A U101G,-0.568
7,U56A A97G,-0.89
8,U56A A97U,-1.47
9,U56A C96U A138U,-4.06
10,U56A G62A C76U G81A C87U C95U,-1.49
11,U55A C87U U90C A122U,≤ -4.2
12,U56A G58A G88C,-3.84
13,U56A C69A G84A,-1.63
14,U56A C96U G133A,≤ -4.2
15,U56A G58A C72U C87U U109G G136A U144C,-4.13
16,U55C U109G,-0.246
17,U55A G84A G86A C93U C105U,-1.1
18,U55G C57U C63G A66U G94C U104G,≤ -4.2
19,U55A G67A C85U U90A A98U,≤ -4.2
20,U56A C57U G83A,0.0377
21,U55A U56A G80U U111A,≤ -4.2
22,U55G C79U A91C G124C C129A A137U,≤ -4.2
23,U56A G58A C87G G133U,≤ -4.2
24,U56A C79U G83A,≤ -4.2

row,Variant,polymerase ribozyme fitness (log ratio)
1,U55G C72U,-0.349
2,U55A U61A C93U C103A,≤ -4.2
3,U55G C87A C118U U130G,≤ -4.2
4,U56A C75G C93A A98G A106C G141A,≤ -4.2
5,U56A A60C G92U,-1.73
6,U56A A73C G94C,-3.51
7,U55A G59U A60G G94A,-1.02
8,U55A G94U C108A,≤ -4.2
9,U56A A89U C96G,-1
10,U56A G70A C85U A97G G133C,≤ -4.2
11,U55A G62A C87U C103U,-1.44
12,U55G G65A A97U U130C,-1.27
13,U55G G133U,-4.16
14,U55G C105U G141U U145C U146G,-3.09
15,U55A C76G A138C,≤ -4.2
16,U56A A89U,-0.431
17,U55G G83A C103U U135A,-2.23
18,U56A C57U U82A G84A G92U A106C G143C,≤ -4.2
19,U55A C108G,≤ -4.2
20,U56A A73U C79G G88A,≤ -4.2
21,U55G C57A C69U U109G C116A,-0.0851
22,U55A C79A A121C,≤ -4.2
23,U55G A107U A122U,-3.21
24,U55G C96A C105U,-0.496

row,Variant,polymerase ribozyme fitness (log ratio)
1,U55A U56A G59A,0.199
2,U56A G67C C93U C103A U130A U148C,≤ -4.2
3,U56A C96U C116U G143A,-3.36
4,U56A C85U A142U,-1.06
5,U55A G124U U139G,0.0477
6,U55G C85G C132U,-2.9
7,U55A G68A,-3.21
8,U55A U61G G86U,≤ -4.2
9,U56A A91G C95U C105G A120G,-3.49
10,U55A G86U U145G,-1.41
11,U56A C96U,-0.499
12,U55A C93U,-1.68
13,U55A G68C A91G A107C,≤ -4.2
14,U55A G81A C87U U135A U146A,-2.11
15,U55A C105G G141U,-2.82
16,U56A A73G,-0.236
17,U55G A60G C79U A119C,-2.12
18,U55A G88C G133U U145C,≤ -4.2
19,U56A A66G C95U C99U A120G,≤ -4.2
20,U56A A91G U148C,-3.72
21,U55A G59C G94U A107C,≤ -4.2
22,U55G A60U G83C A137U G141U,≤ -4.2
23,U55A G71C A106U C125A,≤ -4.2
24,U55C U78C G117U U135G U151G,≤ -4.2

row,Variant,polymerase ribozyme fitness (log ratio)
1,U56A C57U,0.273
2,U56A C103G,-0.914
3,U56A C103U,-0.0268
4,U55C G83C A115C C132U,-2.06
5,U55G U127A,-3.34
6,U55G U127C,-1.36
7,U56A A150C,-3.35
8,U56A G59A C105G A110G A150C,≤ -4.2
9,U55G G143A,-0.655
10,U55G G143C,-2.79
11,U55G A73U,-2.35
12,U55G C99A,-3.24
13,U55G G58A C93A U109G,-3.3
14,U55C A73U A97U U144G,-1.48
15,U56A A142U,-0.643
16,U56A C87U A98U C116G,0.0809
17,U55A G58C,-0.661
18,U55A G80A C85A,-1.39
19,U56A C95U C99U C125G,-2.57
20,U56A C57G C87A A119G G126A,≤ -4.2
21,U55A U61A A91U A97C A142G,≤ -4.2
22,U55A G86A C93A U104C A113U G126A,≤ -4.2
23,U55G G71U,-1.86
24,U55G G88U A97G U135G U148C,≤ -4.2

row,Variant,polymerase ribozyme fitness (log ratio)
1,U56A C75U G143A,-0.711
2,U56A A73G C87G,≤ -4.2
3,U55A G58A C85A C131U,0.931
4,U55A C76A C114U,-3.91
5,U56A G58C C85U,-0.365
6,U56A C69U A106G,-1.79
7,U55G G83C U135A,-1.97
8,U55A G92U,-1.03
9,U55A U109G A137U,-4.19
10,U55A C75U,0.238
11,U55A G136A,-0.833
12,U55A G67A U127A,≤ -4.2
13,U55A U56A,-0.654
14,U55A C85U A122G A142G U145G,-2.39
15,U55A C96A G136C,-3.78
16,U55A G84U G152C,-3.48
17,U55A G143C,-2.99
18,U55G C93U,-1.83
19,U55G C93G,-4.19
20,U56A C99U,-0.614
21,U55G C93U U101G,-0.936
22,U55A U82G,-0.931
23,U55A U82C,-0.191
24,U55A G84A G117U,-0.634

row,Variant,polymerase ribozyme fitness (log ratio)
1,U56A G58A A89C C95G A122C G124C G141C,-1.54
2,U55A G74C C118U,≤ -4.2
3,U55G G84A C99A A120G C131U,-2.08
4,U56A C125G,-1.56
5,U56A C118U C123G U144C,-0.722
6,U55G C85U C131U U134C,1.73
7,U55C G92C,-0.135
8,U55G C85U,-0.188
9,U55G C85G,-1.66
10,U55G C85A,-2.4
11,U56A C93U G141A,-3.72
12,U55A U56G C75G,-4.19
13,U55C C85U A97U,-1.16
14,U55G G62A C116G,-1.02
15,U56A A60U C93U G141U,-3.71
16,U55A C96G A115U A119G,-2.42
17,U55G C87U U130C,-0.00301
18,U56A C76A A119U A121C G126U,-1.11
19,U55G U56A U82C,-1.09
20,U56A C57G A66U G84A A98G C103A C125A,≤ -4.2
21,U55G G86U,-0.476
22,U55C C85G,-1.66
23,U55C C85A,-1.24
